Experimental data published in paper PMC10133702.
Like-named read-outs stand apart in the source and are kept apart here.

Legend:
Assay in all cases: radioligand binding
[1] = biological target: Ubiquitin (Ub)-tagged Ls-AChBP, wild type (Lymnaea stagnalis) (UniProt P58154)
[2] = biological target: [H69A]Ls-AChBP, Ub-tagged (Lymnaea stagnalis) (UniProt P58154)
[3] = biological target: [R23D]Ls-AChBP, Ub-tagged (Lymnaea stagnalis) (UniProt P58154)
[4] = biological target: [T184F S186E]Ls-AChBP, Ub-tagged (Lymnaea stagnalis) (UniProt P58154)
[5] = biological target: [T184K]Ls-AChBP, Ub-tagged (Lymnaea stagnalis) (UniProt P58154)
[6] = biological target: [Q55K]Ls-AChBP, Ub-tagged (Lymnaea stagnalis) (UniProt P58154)
[7] = biological target: Ubiquitin (Ub)-tagged Ls-AChBP, wild type (Lymnaea stagnalis) (UniProt P58154); remark: listed apart in the source
[8] = biological target: [S186E]Ls-AChBP, Ub-tagged (Lymnaea stagnalis) (UniProt P58154)
[9] = biological target: [T184F]Ls-AChBP, Ub-tagged (Lymnaea stagnalis) (UniProt P58154)

Substance	IC50 [1] [µM]	IC50 [2] [µM]	IC50 [3] [µM]	IC50 [4] [µM]	IC50 [5] [µM]	IC50 [6] [µM]	IC50 [7] [µM]	IC50 [8] [µM]	IC50 [9] [µM]
VxXXB-C(19–50), full-length C-terminal domain of αD-conotoxin VxXXB (peptide)	10	10	10	0.03	> 100	29.7	7.2	0.09	0.58
VxXXB-C(21–50), C-terminal domain of αD-conotoxin VxXXB (peptide)				0.05	55	36	10	0.04	7.2
VxXXB-CNC, full-length synthetic VxXXB (peptide)	0.8	> 10	> 10	0.004					
native αD-conotoxin VxXXB (from UniProt P0C1W6 46-95) (natural protein)				0.001			0.011		
